This is an account of results in patent US6299877.

Experiment [1] deals with IFN-αR1 (IFNAR1), type I interferon receptor subunit on cells (human) (UniProt P17181).
Experiment [2] addresses IFN-αR2 (IFNAR2), type I interferon receptor subunit on cells (human) (UniProt P48551).

For “Histidine (His)-tagged IFN-ε (IFN-ε^His), recombinant, expressed in E. coli (ligand)”, the growth inhibition of Daudi cells, IC50 in experiment [1] and in experiment [2] was 100 µM in each case.
